Where two headings read alike, the source gives them in different places.
Key:
[1] = Competitive TR-FRET assay modified for mAbs and Fabs (T0, T24, T48); type: binding; conditions: 37° C.
Method: A competitive TR-FRET (time-resolved fluorescence resonance energy transfer) assay was developed to rank-order the dissociation of α-Compound A mAbs from Compound A as equilibrium is reached at 37° C. The assay buffer was HBS-N (10 mM HEPES, 150 mM NaCl, pH 7.4; GE Healthcare), 0.1% (w/v) BSA (bovine serum albumin; Sigma), 2% DMSO (dimethyl sulfoxide; Sigma). All reagents were prepared in assay buffer and dispensed in equal volumes into white 384 microplates with final volume of 20 μl per well at the following final concentrations: 4 nM COMPOUND 5, the biotinylated analog of COMPOUND 2, a 100 0.1 nM 7-pt titration of human α-Compound A antibodies, 0.1 nM europium-labeled α-mouse IgG (LANCE Eu-W1024; PerkinElmer), 5 nM streptavidin-D2 (Cisbio), and 4 nM mAb 26D5 VH_A10G_Y33A_S53P_M89V_G95A; VK_W32N_H38Q (P1-075621, the second-round optimization parent 26D5-295-B08 formatted with mouse IgG Fc). COMPOUND 5 and α-Compound A antibody titrations were added first to the microplate, and were subjected to an initial incubation at 37° C., 1000 rpm, for one hour to facilitate antibody binding to the compound. After the initial incubation period, the europium α-mouse IgG, streptavidin-D2, and 26D5-mouse IgG (P1-075621) were added sequentially, then the plate was returned to 37° C., 1000 rpm incubation. Microplates were read using a Perkin Elmer EnVision plate reader, and the measured FRET signal was defined as [665 nm]/[620 nm]*10,000. Microplates were read at 30 minutes (T0) and after 24 hour (T24) intervals. For each antibody titration, the FRET signal was converted to % Inhibition relative to wells without α-Compound A antibody: (100 ((FRET at [antibody concentration]/FRET at 0 nM)*100). The % inhibition antibody titrations were plotted using TIBCO Spotfire (v.7), and the IC50 was determined using a 4-parameter model curve fit. The IC50s at each timepoint were reported, as well as the IC50 curve shift relative to T0. An IC50 curve shift indicated α-Compound A antibody dissociation from the biotinylated compound as the assay reached equilibrium, which subsequently allowed 26D5-mouse IgG1 (P1-075621) competitor to bind and generate the FRET signal detected in the assay.
The competitive TR-FRET assay defined above was also modified to assess optimized 26D5 antibody progeny that were reformatted as Fabs. The α-Compound A antibody and Fab titration series were extended to 250 0.244 nM (11-pt titration), and replicates of each concentration were collected in quadruplicate. The assay incubation was extended to include an additional 48 hr timepoint to ensure equilibrium was reached, and T48 hr IC50 and IC50 shifts were reported. The % inhibition titrations were plotted in Graphpad Prism (v.8) and fit to a 4-parameter model. All other experimental setup conditions were otherwise identical to the antibody TF-FRET assay.
Competitive FRET data collected for affinity-optimized α-Compound A 26D5 progeny comparing human antibodies and Fabs are shown in FIG. 14 and Table 13. Each panel represents a single α-Compound A sequence, with antibody (mAb, solid lines, circles) and Fab (dotted lines, triangles) formats overlaid. […] The names of the mAbs/Fabs in Table 13 refer to the corresponding sequences in Tables 1-3. All mAbs listed in Table 13 were in a human IgG1f/LC kappa format.

[2] = SPR (Biacore) Protein A mAb capture, Compound A injected; conditions: 37° C., binding to Compound A, for rank ordering only
Method: The binding of hybridoma expressed 26D5 parent mAb (VH SEQ ID NO: 83 and VL SEQ ID NO: 98 in IgG1 f format)(P1-072224) and affinity matured mAbs to Compound A was examined by SPR (Biacore™) using a protein A capture method. The running buffer was 1×PBS (phosphate buffered saline, pH 7.4) with 0.05% Tween 20 and 2% DMSO. Binding experiments were carried out at 37° C. Protein A was coated on a CM5 S-series sensor chip (Cytiva, Cat. No. 29149603) at high density (2000+ RUs of protein A). The immobilization of protein A was carried out using the standard amine coupling immobilization procedure recommended by the manufacturer. The affinity matured antibody was then captured at a concentration of 2 ug/mL on the protein A surface at a flow rate of 3 uL/min for 2 minutes. Compound A was then injected over the captured antibody at concentrations spanning 100-3 nM (100, 50, 25, 12.5, 6.25, 3.125 nM) (FIG. 10) and for screening concentrations spanning 100-3 nM (100, 33, 11 nM) for 2 minutes at a flow rate of 100 uL/min and allowed to dissociate for at least 450 seconds. The chip surface was regenerated after each cycle with a 40 second pulse of 10 mM Glycine, pH 1.5. Background binding to the protein A surface alone was used to subtract non-specific binding. All experiments were run on a Biacore T200 surface plasmon resonance instrument using Biacore T200 Control software v. 2. Data analysis was performed using Biacore T200 evaluation software v 3.1. Apparent affinities were determined for rank ordering only since dissociation rates were too slow to be measured by Biacore. The names of the mAbs in Table 10 refer to mAbs having the H and L chain sequences of the corresponding Fabs in Table 3 in an IgG1f format.

[3] = SPR (Biacore) on chip coated with BSA conjugated to COMPOUND 2; type: binding; conditions: 37° C., Fab over COMPOUND 2-BSA surface; for Ka / koff, dissociation rate constant: apparent; for Kd: apparent affinity
Method: The binding of the first round affinity matured antibody Fab fragments to conjugated versions of Compound A was examined by SPR (Biacore™) using a CM5 S-series sensor chip (Cytiva, Cat. No. 29149603) coated with BSA previously conjugated to COMPOUND 2, COMPOUND 3 or COMPOUND 1. The immobilization level was 150-250 RUs. The running buffer was 1×PBS (phosphate buffered saline, pH 7.4) with 0.05% Tween 20. […] The antibody Fab fragment at a concentration of between 200-0.8 nM was injected over the BSA-compound coated surface for 2 minutes at a flow rate of 30 uL/min. The antibody Fab fragment was then allowed to dissociate for 15 minutes. The chip surface was regenerated after each cycle with a 1 minute pulse of 10 mM Glycine, pH 2, and a 1 minute pulse of 50 mM NaOH. All experiments were run on the same equipment and analyzed with the same software as described before. Apparent affinities were determined for rank ordering only since dissociation rates were too slow to be measured by Biacore. Comparative experiments with selected mAbs were also conducted in a similar fashion (see FIG. 11).

| Molecule | koff, dissociation rate constant [3] [s⁻¹] | Kd [3] [nM] | Ka [3] [M⁻¹ s⁻¹] | further results |
| --- | --- | --- | --- | --- |
| 26D5-75203-343-B09-mAb: human IgG1f/kappa mAb; VH SEQ ID NO: 54, VL SEQ ID NO: 87 (antibody, V domains shown) VH: EVQLVESGGGLIQPGGSLRLSCAASGFTVSSNAMSWVRQAPGKGLEWVSYIYPGGRTYYADSVKGRFTISRDNSKNTLYLQMNSLRAEDTAVYYCARAGFGGGDYWGQGTLVTVSS VL: DIQMTQSPSSVSASVGDRVTITCRASQGISSNLAWYQQKPGKAPKLLIYAASTLQSGVPSRFSGSGSGTDFTLTISSLQPEDFATYYCQQANEFPLTFGGGTKVEIK | – | – | – | IC50 ([1]; 24 hr, read-out: T24 hr IC50): 3 nM; IC50 ([1]; 48 hr, read-out: T48 hr IC50): 3.1 nM; T24 hr IC50 shift ([1]; IC50 shift at 24 hr relative to T0): 0.4 nM; T48 hr IC50 shift ([1]; IC50 shift at 48 hr relative to T0): 0.5 nM; IC50 ([1]; read at 30 minutes (T0), competitor 26D5-mouse IgG (P1-075621), read-out: T0 IC50): 2.6 nM; Kd ([2]; apparent affinity, read-out: KD): < 0.05 nM; Ka ([2]; apparent): 1.2e+06 M⁻¹ s⁻¹; Kd ([2]; apparent): <5e-05 s⁻¹ |
| 26D5-295-B08-Fab-LONG: antibody Fab fragment; VH SEQ ID NO: 60, VL SEQ ID NO: 88; sequence in Table 3 (antibody, V domains shown) VH: EVQLVESGGGLIQPGGSLRLSCAASGFTVSSNAMSWVRQAPGKGLEWVSFIYPGGRTYYADSVKGRFTISRDNSKNTLYLQMNSLRAEDTAVYYCARAGFGGGDYWGQGTLVTVSS VL: DIQMTQSPSSVSASVGDRVTITCRASQGISSNLAWYQQKPGKAPKLLIYAASSLQSGVPSRFSGSGSGTDFTLTISSLQPEDFATYYCQQANSFPLTFGGGTKVEIK | 0.00022 | 0.8 | 280000 | – |
| 26D5-GVR-H-Fab-LONG: antibody Fab fragment; VH SEQ ID NO: 81, VL SEQ ID NO: 98; sequence in Table 3 (antibody, V domains shown) VH: EVQLVESGGGLIQPGGSLRLSCAASGFTVSRNYMSWVRQAPGKGLEWVSFIYSGGRTYYADSVKGRFTISRDNSKNTLYLQMNSLRAEDTAVYYCARGGFGGGDYWGQGTLVTVSS VL: DIQMTQSPSSVSASVGDRVTITCRASQGISSWLAWYQHKPGKAPKLLIYAASSLQSGVPSRFSGSGSGTDFTLTISSLQPEDFATYYCQQANSFPLTFGGGTKVEIK | 0.001 | 3.5 | 280000 | – |
| 26D5-295-C08-Fab-LONG: antibody Fab fragment; VH SEQ ID NO: 62, VL SEQ ID NO: 88; sequence in Table 3 (antibody, V domains shown) VH: EVQLVESGGGLIQPGGSLRLSCAASGFQVSSNAMSWVRQAPGKGLEWVSFIYPGGRTYYADSVKGRFTISRDNSKNTLYLQMNSLRAEDTAVYYCARGGFGGGDYWGQGTLVTVSS VL: DIQMTQSPSSVSASVGDRVTITCRASQGISSNLAWYQQKPGKAPKLLIYAASSLQSGVPSRFSGSGSGTDFTLTISSLQPEDFATYYCQQANSFPLTFGGGTKVEIK | 8.5e-05 | 0.3 | 280000 | – |
| 24H1-GQTV-Fab-LONG: antibody Fab fragment; VH SEQ ID NO: 80, VL SEQ ID NO: 98; sequence in Table 3 (antibody, V domains shown) VH: EVQLVESGGGLIQPGGSLRLSCAASGFTVSRNYMSWVRQAPGKGLEWVSFIYSGGSTYYADSVKGRFTISRDNSKNTLYLQMNSLRAEDTAVYYCARGGFGGGDYWGQGTLVTVSS VL: DIQMTQSPSSVSASVGDRVTITCRASQGISSWLAWYQHKPGKAPKLLIYAASSLQSGVPSRFSGSGSGTDFTLTISSLQPEDFATYYCQQANSFPLTFGGGTKVEIK | 0.001 | 1.3 | 790000 | – |

The next lines start with results.

| koff, dissociation rate constant [3] [s⁻¹] | Kd [3] [nM] | Molecule | Ka [3] [M⁻¹ s⁻¹] | further results |
| --- | --- | --- | --- | --- |
| 0.0013 | 0.9 | 26D5-GVR-Q-FT-Fab-SHORT: antibody Fab fragment; VH SEQ ID NO: 81, VL SEQ ID NO: 99; sequence in Table 3 (antibody, V domains shown) VH: EVQLVESGGGLIQPGGSLRLSCAASGFTVSRNYMSWVRQAPGKGLEWVSFIYSGGRTYYADSVKGRFTISRDNSKNTLYLQMNSLRAEDTAVYYCARGGFGGGDYWGQGTLVTVSS VL: DIQMTQSPSSVSASVGDRVTITCRASQGISSWLAWYQQKPGKAPKLLIYAASSLQSGVPSRFSGSGSGTDFTLTISSLQPEDFATYYCQQANSFPLTFGGGTKVEIK | 1.6e+06 | – |
| 0.0016 | 1.3 | 26D5-GVR-Q-FT-Fab-LONG: antibody Fab fragment; VH SEQ ID NO: 81, VL SEQ ID NO: 99; sequence in Table 3 (antibody, V domains shown) VH: EVQLVESGGGLIQPGGSLRLSCAASGFTVSRNYMSWVRQAPGKGLEWVSFIYSGGRTYYADSVKGRFTISRDNSKNTLYLQMNSLRAEDTAVYYCARGGFGGGDYWGQGTLVTVSS VL: DIQMTQSPSSVSASVGDRVTITCRASQGISSWLAWYQQKPGKAPKLLIYAASSLQSGVPSRFSGSGSGTDFTLTISSLQPEDFATYYCQQANSFPLTFGGGTKVEIK | 1.3e+06 | – |

From patent publication US12065505B2, “Antibodies and antigen binding peptides for factor XIa inhibitors and uses thereof” (Bristol-Myers Squibb Company, priority 2021, dated 2024)
